Substitutions are numbered along the chain they refer to.
B1: ADI-20988 (antibody, V domains shown)
VH: EVQLVESGGEVKKPGASVKVSCKTSGYPFSNYGISWMRLAPGQGLEWMGWISSYNGNTYYTKKFQGRVSMTTDTSTSTAYMELRSLRSDDTAVYYCARDVPVIAAHTFEYWGQGTLVTVSS
VL: ETTLTQSPLSLPVTLGQPASISCRSSESLVYSDGNTYLSWFQQRPGQSPRRIIYKVSNRDSGVPDRFSGSGSGTDFTLKISRVEAEDVGVYYCMQATHWPRDTFGQGTKVDIK
notes: also called Ab 240
B2: ADI-20999 (antibody, V domains shown)
VH: QVQLQESGPVLVKPSETLSLTCTVSGGSITSSAYYWGWIRQPPGKGLEWIGSVSYSGTTSYTPSLKSRVTISGDASKEQFSLNLRSVTAADTAVYYCARQTKAFGRRDYGMDVWGQGTTVTVSS
VL: QPVLTQPPSVSAAPGQKVTISCSGSNSNIGSNFVSWYQQLPGTAPKLLIYENNKRPSGIPDRFSGSKSGPSATLGITGLQTEDEADYYCGTWDTGLSAHWVFGGGTKLTVL
notes: also called Ab 250
B3: ADI-21038 (antibody, V domains shown)
VH: QVQLVQSGAEVKKPGESLKISCQGFGFSFTSYWIGWVRQTPGKGLEWMGTIYPGDSETRKSPSIQGQVTFSADRSISTAYLQWSGLTASDTAVYYCARLKGGWGTTMAGIRDYFYYGLDVWGQGTTVTVSS
VL: EIVLTQSPGTLSLSPGERATLSCRASQSVSSSYLAWYQQKPGQAPRLLIYGASSRATGIPDRFTGSGSGTDFTLTISRLEPEDFAVYYCQQYATSLGGFTFGPGTKVDIK
B4: ADI-21044 (antibody, V domains shown)
VH: QVQLVQSGAELKKPGESLKISCKTSGYTFANYWIGWVRQMPGKGLEWMGIIYPGDSDTRYSPSFQGQVTFSADKSINSAYLQWHSLKASDSAIYYCARRFSPDYSDGAAPPTLSDAFDVWGQGTTVTVSS
VL: DIVMTQSPSSLSASVGDRVTITCRASQNINIYLNWYQQKPGKAPKLLIYAASTLQSGVPSRFSGSGSATDFTLTISSLQPEDFATYYCQQSYRTPNDFGRGTKVDIK
B5: ADI-21034 (antibody, V domains shown)
VH: QVQLQQSGAEVKKPGESLTISCKGSGYSFGNYWISWVRQMPGKGLEWMGRIDPSDSYVNYSPSFQGNVTMSVDKSSSTAYLQWSSLKASDTAMYYCARLAGYSTLWGQGTLVTVSS
VL: EIVLTQSPGTLSLSPGERATLSCRASQSFGSIYLAWYQQKPGQAPRLLIYGTSSRATGIPDRFSGSGSGTDFTLTIRRLEPEDFAVYYCLYYGSSPGATFGPGTKVDIK
B6: ADI-21021 (antibody, V domains shown)
VH: QVQLQQWGAGLLKPSETLSLTCAVHGGSFSGFYWSWIRQSPGKGLEWIAEINDSGNTNHNPSLKSRVTISIDTSKNQFSLNVSSVTAADTAVYYCAKNGGGHHYVGTLRFRSRAFDIWGQGTMVTVSS
VL: EIVMTQSPSTLSASVGDRVTITCRASQSIGNRLAWYQQKPGKAPKLLISLASGLETGVPSRFSGSGSGTEFTLTITSLQPDDFATYYCQQYSSYGTFGQGTKLEIK
notes: also called Ab 270
B7: ADI-20991 (antibody, V domains shown)
VH: EVQLVESGGNLVKPGGSLRLSCAASGFTFSGYYMSWIRQAPGKGLEWISDISGGSSYTNYADSVKGRFTISRDNAKNSLYLQMNSLRAEDTAMYYCARVEYDTTGPFHFDYWGQGTLVTVSS
VL: QPVLTQPPSVSGAPGQRVTISCTGSSSNIGAGYDVHWYQQLPGTAPKLLIYGNNNRPSGVPDRLSGSKSGTSASLAITGLQAEDEADYYCQSYDSSLSGYVFGTGTKVTVL
B8: ADI-21025 (antibody, V domains shown)
VH: EVQLVESGGGLVRPGGSLRLSCEASGLKLSGYSMNWVRQAPGKGLEWVSSISASSSYIHYADSLKGRFTISRDNAKNSLYLQMNSLRAEDTAVYYCVASWLTPGWFDPWGQGTLVTVSS
VL: B7 VL with R17T, N54T, L64F, I77V, A86G, Y100S, V101A, T104G, V108L
B9: ADI-21027 (antibody, V domains shown)
VH: QVQLQESGPGLVKPSGTLSLTCVVSGGSIRSHNYWTWVRQPPGKGLEWIGEIYHSGNTNYNPSLKSRVTLSIDKSKNVFSLRLNSVTAADTAVYYCVGGGPFAPYYFENWGQGTLVTVSS
VL: B7 VL with P2S, D34A, Q39H, G52D, L64F, T71S, S95R, V108L
B10: ADI-21045 (antibody, V domains shown)
VH: EVQLVESGGGLVKPGGSLRLSCLASGFKFRSYSMNWVRQAPGTGLVWVASISASSSFIFYADSLKGRFTISRDNDKNSLYLQMNSLTVEDTAVYYCVRDMSGISSGGKTFDYWGQGTLVTVSS
VL: QSVLTQPPSVSGAPGQRVTISCTGSSSNLGAGYDVQWYQQLPGTAPKLLIYGNNNRPSGVPDRFSGSKSGTSASLAITGLRAEDEADYYCQSYDTSPVFGGGTKLTVL
B11: ADI-20992 (antibody, V domains shown)
VH: EVQLVESGGGLVQPGGSLRLSCVVSGFTFKSYWMTWVRQAPGKGLEWVANIKEDGSEKYYVDSVKGRFTISRDNARNSLFLQMNSLRADDTAVYYCARNLEVSNEFYVVTDNYYLMDVWGQGTTVTVSS
VL: DIQLTQSPSSLSASVGDRVTITCRASQSISFFLNWYRQKPGKAPKLLIYAASTLQSGVPSRFSGSGSGTDFTLTISSLQPEDFASYYCQQSYSTPHTFGQGTKVEIK
B12: ADI-21029 (antibody, V domains shown)
VH: QVQLVQSGAEVRKPGESLKISCKASGYSFTNYWIGWVRQMPGKGLEWMGIVYPADSHPVYSPSFQGQVTFSTDKSINTAYLQWSSLKASDTAMYFCARRDGGTDYLSDAFDIWGQGTMVTVSS
VL: B11 VL with Q3V, L4M, A25T, S30R, F31R, F32Y, R37Q, T53S, S85T, H96N
B13: ADI-20986 (antibody, V domains shown)
VH: EVQLVESGGGLVQPGGSLRLSCVASGFTFSNYWMNWVRQAPGKGLEWVANIKEDGSEIKYVDSVKGRFTISRDNAKNSLYLQMNSLRAEDTAVYYCARTEDSSSWFVAIDYYNYMDVWGKGTTVTVSS
VL: DIQVTQSPGTLSLSPGERATLSCRASQTVSSSYLAWYQQKPGQAPRLLFYGASSRATDIPDRFSASGSGTDFTLTIHRLEPEDFAVYYCQLYGRSPPYTFGQGTKVEIK
B14: ADI-21050 (antibody, V domains shown)
VH: QVQLVQSGAEVKKPGASVKVSCTASGYTFANNGISWVRQAPGQGLEWMGWISAYNGNTKYAQTVQGRVTLTTDTSTSTAYMELRSLTSDDTAVYYCAREMGVDAAATFDYWGQGTLVTVSS
VL: EIVMTQSPLFLSVTLGQPASISCRSSQSLVYSDTNTYLTWFQQRPGQSPRRLIYKVSNRDSGVPDRFSGSGSGTYFTLKISRVEAEDIGVYYCMQAIHWPRTFGQGTKLEIK
B15: ADI-21023 (antibody, V domains shown)
VH: EVQLVESGGGLVKPGGSLRLSCAASGFRFSSYGMHWVRQAPGRGLEWVSSITAGSSYMDYADSVKGRFSISRDNAKTSLYLQMNSLRAEDTAIYYCARENYDTGRGLNWFDPWGQGTLVTVSS
VL: QSVVTQPPSVSGAPGQRVTISCTGSSSNIGAGYDVHWYRQLPGTAPEVLIYGNNNRPSGVPDRFSGSKTGTSASLAITGLLAEDGADYYCQSYDRSQLWVFGGGTQLTVP
B16: ADI-21030 (antibody, V domains shown)
VH: EVQLVESGGGLVKPGGSLRLSCAASGFKFSTYYMSWIRQAPGKGLEWVSNISGGSSYSNHADSVKGRFTISRDNAKNSLYLEMNSLRAEDTAVYYCAREDLMGVSGLAYFEYWGQGILVTVSS
VL: QPVLTQPPSVSGAPGQRVTISCTGRSSNIGAGYDVNWYKQLPGAVPKVLIYGNTNRPSGVPDRFSGSKSGNSASLAITGLQAEDEADYYCQSYDRNLGYVFGTGTKLTVL
B17: ADI-21014 (antibody, V domains shown)
VH: QVQLQESGPGLVKPSETLSLICTVSGGSISNYYWSWIRQPPGKGLEWIGYVWFGTTKYNPSLKNRVTISVDTGKNQVSLKVNSVTAADTAIYYCARDSSIWYRGAFEIWGQGTTVTVSS
VL: DIRLTQSPSSLSASVGDRVTITCQASQDISNHLNWYQQRPGKAPELLIYDASTLETGGPSRFSGSGSGTDFTLTISSLQPEDFADYYCQQYDNLPVTFGGGTKVDIK
B18: ADI-21017 (antibody, V domains shown)
VH: QVQLVESGTEVKKPGASVKVSCKASGYTFTNYGITWVRQAPGQGLEWMGCISGYNGNTNYAQNLQGRVTMTTDTSTNTAYMELRSLISDDTAVYYCARDTGLTAAALLDYWGQGTLVTVSS
VL: DIVLTQSPLSLPVTLGQPASISCRSSQSLVYSDGNTYLSWFQQRPGQSPRRLIYKVSNRDSGVPDRFGGSGSGTYFTLKISRVEAEDVGIYYCMQAIHWPLTFGGGTKVEIK
B19: ADI-21033 (antibody, V domains shown)
VH: QVQLVQSGAEVRKPGDSLKISCKFSENIFTTYYWTGWVRQMPGRGLEWMGIIFPGDSDTRYSPSFQGHVTISVDKSIATAFLQWSSLKASDSAMYYCARAKYEGSFDMWGQGTMVTVSS
VL: DIQVTQSPSSLSASVGDRVSITCQASQDIRNRLNWYQQKPGKAPKLLIYDASILETGVPSRFSGSGSGTDFTFSISSLQPEDFATYYCQQYDSFSLFTFGPGTKVEIK

molecular target: RSV prefusion F (preF), subtype A (respiratory syncytial virus, subtype A, UniProt P03420 26-513); test: BLI, IgG

Binder	Kd
B1	0.294 nM
B2	4.16 nM
B3	2.93 nM
B4	4.51 nM
B5	0.145 nM
B6	2.55 nM
B7	0.234 nM
B8	0.242 nM
B9	0.296 nM
B10	0.456 nM
B11	0.956 nM
B12	3.77 nM
B13	0.414 nM
B14	0.362 nM
B15	0.264 nM
B16	0.257 nM
B17	0.408 nM
B18	0.305 nM
B19	0.193 nM

molecular target: T1, RSV postfusion F (postF), subtype A (respiratory syncytial virus, subtype A, UniProt P03420 26-513); test: BLI, IgG
T1 construct: also called F ΔFP; Postfusion subtype A

Binder	binding result	Kd
B1	no binding	–
B2	no binding	–
B3	–	1.45 nM
B4	no binding	–
B5	no binding	–
B6	no binding	–
B7	no binding	–
B8	no binding	–
B9	no binding	–
B10	no binding	–
B11	no binding	–
B12	no binding	–
B13	no binding	–
B14	no binding	–
B15	no binding	–
B16	no binding	–
B17	no binding	–
B18	no binding	–
B19	no binding	–

molecular target: RSV prefusion F (preF), subtype B (respiratory syncytial virus, subtype B); test: BLI, IgG

Binder	Kd
B1	1.29 nM
B2	24.1 nM
B3	16 nM
B4	5.85 nM
B5	0.174 nM
B6	4.5 nM
B7	0.258 nM
B8	0.295 nM
B9	0.34 nM
B10	0.596 nM
B11	1.22 nM
B12	8.38 nM
B13	1.25 nM
B14	0.323 nM
B15	0.316 nM
B16	0.301 nM
B17	0.378 nM
B18	1.56 nM
B19	1.4 nM

Source: patent US20260258115A1 (MAPP BIOPHARMACEUTICAL, published 2026)
